One molecule from US20200181261A1 (Bayer, published 2020) can be followed below.

“And” between values parts separate entries of the source, which are not always exact repeats. Equal values may be shown once.

Assay [1] has as its target T1, human CEACAM6, full-length, on cells (human, UniProt P40199 35-320).
T1 construct: used both for transfected HeLa cells and for tumor cell lines that express CEACAM6 endogenously; also called TPP-4639; HeLa human CEACAM6
T1 sequence: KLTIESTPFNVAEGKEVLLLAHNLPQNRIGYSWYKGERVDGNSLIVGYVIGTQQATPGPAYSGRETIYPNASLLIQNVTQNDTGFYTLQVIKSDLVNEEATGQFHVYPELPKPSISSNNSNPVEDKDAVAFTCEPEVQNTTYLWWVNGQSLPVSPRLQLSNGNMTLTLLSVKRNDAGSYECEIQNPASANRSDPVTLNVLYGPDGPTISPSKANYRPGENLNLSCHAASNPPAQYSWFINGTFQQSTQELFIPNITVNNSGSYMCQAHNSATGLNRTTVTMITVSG
Briefly: FACS, T84 cells (endogenous CEACAM6). The procedure:
(§1) For FACS experiments HeLa wild type cells were cultured in RPMI-1640, 10% FCS, while CEACAM-receptor transfected HeLa cells received in addition 0.5% Gentamycin (stock 10 mg/ml, Fa. PAA) and 200 μg/ml Hygromycin B (stock 50 mg/ml, Invitrogen). Cells were washed 3 times with PBS w/o Ca²⁺/Mg²⁺ and were detached from the culture plate non-enzymatically with EDTA dissociation buffer (Gibco). Cells were washed in cold FACS buffer (PBS w/o Ca²⁺/Mg²⁺ and heat-inactivated 3% FCS) and were counted using a countess machine (Invitrogen). 10⁵ cells per well were plated and incubated with the respective primary antibody (5 μg/ml) for 1 h at 4° C. on a plate shaker. […] After 2 times washing the cells were resuspended in 100 μl FACS buffer and were analysed on a FACS Canto II machine (Beckton Dickinson) or a FACS Array (Beckton Dickinson).
(§2) For EC₅₀ analysis, the primary antibodies were used at increasing concentrations in a range from 0.1 nM to 100 nM. Half maximal binding values (EC₅₀) were determined by plotting the median fluorescence intensity signal against the concentration (logarithmic scale). Curve fitting of data was performed using the Graph Pad prism analysis software.
(§3) Anti-CEACAM6 antibodies were also tested for their binding to different cancer cell lines that endogenously express CEACAM6 by FACS analysis. […]

Assay [2] deals with T2, Human CEACAM6-Domain 1-His-I30F (I63F according to SEQ-ID NO: 179) (human).
T2 construct: the entry already carries the substitution; also called TPP-8698
T2 chain: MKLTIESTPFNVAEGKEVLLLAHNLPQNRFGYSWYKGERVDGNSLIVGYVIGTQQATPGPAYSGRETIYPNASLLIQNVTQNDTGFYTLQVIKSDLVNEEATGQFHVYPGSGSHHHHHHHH
Put plainly: ELISA, domain 1 protein coated. The procedure:
The proteins were expressed in E. coli, refolded and purified as described in Example 1. Comparative binding activity to domain 1 wild-type protein and the two single mutations was determined by ELISA method. 1.5 ug/ml protein solutions in PBS were coated overnight to 384 Nunc MaxiSorp plates (Sigma, P6491). Plates were washed with PBS/T and blocked with Smart block (CANDOR Bioscience GmbH, 113125). […] After washing with PBS/T, bound antibodies were detected with Anti Human IgG Fc POD (Sigma, A0170) and 10 μM Amplex Red solution (Thermo, A12222). Positive binding signals were detected via Fluorescence (Ex. 535 nm/Em. 590 nm).
Background: An ELISA detects its analyte on a solid surface through an enzyme-linked reagent.

Assay [3] concerns the target T1, human CEACAM6, full-length, on cells. Put plainly: FACS, KS cells (endogenous CEACAM6).
Assay [4] shares this target. Briefly: cell-based or functional assay.
For assay [5] the target is unchanged. Briefly: FACS, PaTu-8902 cells (endogenous CEACAM6). The procedure:
as §1, §2, §3

Assay [6] has the same target. Put plainly: FACS, NCI-H1993 cells (endogenous CEACAM6). The procedure: as §1, §2, §3
Assay [7] has the same target. Put plainly: FACS, SNU-C1 cells (endogenous CEACAM6). The procedure: as §1, §2, §3
On the technique in general: Flow cytometry measures light scatter and fluorescence of single cells or particles in a stream.

B1: TPP-3310 (antibody, human IgG2, kappa)
heavy: QVTLRESGPALVKPTQTLTLTCTFSGFSLSTYGIGVGWIRQPPGKALEWLAHIWWNDNKYYSTSLKTRLTISKDTSKNQVVLTMTNMDPVDTATYYCARISLPYFDYWGQGTTLTVSSASTKGPSVFPLAPCSRSTSESTAALGCLVKDYFPEPVTVSWNSGALTSGVHTFPAVLQSSGLYSLSSVVTVPSSNFGTQTYTCNVDHKPSNTKVDKTVERKCCVECPPCPAPPVAGPSVFLFPPKPKDTLMISRTPEVTCVVVDVSHEDPEVQFNWYVDGVEVHNAKTKPREEQFNSTFRVVSVLTVVHQDWLNGKEYKCKVSNKGLPAPIEKTISKTKGQPREPQVYTLPPSREEMTKNQVSLTCLVKGFYPSDIAVEWESNGQPENNYKTTPPMLDSDGSFFLYSKLTVDKSRWQQGNVFSCSVMHEALHNHYTQKSLSLSPG
light: DIQLTQSPSFLSASVGDRVTITCKASQNVGTAVAWYQQKPGKAPKLLIYSASNRYTGVPSRFSGSGSGTEFTLTISSLQPEDFATYYCQQYSSYPLTFGGGTKVEIKRTVAAPSVFIFPPSDEQLKSGTASVVCLLNNFYPREAKVQWKVDNALQSGNSQESVTEQDSKDSTYSLSSTLTLSKADYEKHKVYACEVTHQGLSSPVTKSFNRGEC
notes: humanized from TPP-2971, human IgG2; also called TPP-2971HU1-hIgG2Kappa
Usually EC50 stands for the concentration needed to bring the measured effect to its halfway point. Regarding B1, the EC50 in assay [1] is 0.3 nM; in assay [3], 0.8 nM; in assay [5], 0.15 nM; in assay [6], 0.8 to 1.6 nM; in assay [7], 0.5 nM. For the same molecule, the binding result in assay [2] is “no binding”. The “IC50 of the dose dependent effect on TIL mediated killing of HCC2935 cells (xCELLigence)” value in assay [4] is 0.62 µg/mL and 0.21 µg/mL.
